Source: patent US5912120A, “Cloning, expression and diagnosis of human cytochrome P450 2C19: the principal determinant of s-mephenytoin metabolism” (The United States of America as represented by the …, priority 1994, dated 1999)

Columns and labels:
[1] = molecular target: cytochrome P450 2C9, allelic variant clone 25 (Leu359) (human)
[2] = molecular target: cytochrome P450 2C9, allelic variant clone 65 (Ile359) (human)
[3] = Mephenytoin 4'-hydroxylase assay, recombinant human CYP2C yeast microsomes (Table III); type: biochemical; conditions: recombinant yeast microsomes + P450 reductase, phospholipid, cytochrome b5 2:1; 0.4 mM substrate, HEPES pH 7.4, 37° C. 30 min; means ± SE
Protocol: (§1) Purified or recombinant yeast microsomes (10-50 pmol) were preincubated with dilauroylphosphatidylcholine (15 μg per 50 pmol P450), P450 reductase (500 U per 50 mol P450), and human cytochrome b5 (2:1 molar ratio when added). The reconstituted mixture was preincubated for 5 min at 37° C., and then placed on ice. A final concentration of 0.4 mM radiolabelled S- or R-mephenytoin (20.7 mCi/mM and 20.9 mCi/mMol) was added to 50 mM HEPES buffer (pH 7.4) containing 0.1 mM EDTA and 1.5 mM MgCl2 for recombinant 2C proteins. The mixture was then incubated at 37° with shaking for 3 min, and the reaction started with the addition of 2mM NADPH and terminated after 30 min with an equal volume of methanol. […] Reaction volumes were generally 0.25 ml except when the volume of recombinant purified cytochrome or yeast microsomes was greater than 50 μl. In these cases, the volume was increased to 0.5 ml to limit the volume of glycerol from the purified preparation to <4% of the final volume.

[4] = Mephenytoin 4'-hydroxylase assay, purified recombinant P450 2C in reconstituted system (Table IV); type: biochemical; conditions: for R/S Ratio / Mephenytoin 4'-Hydroxylase Activity S: purified P450, reconstituted system; for Mephenytoin 4'-Hydroxylase Activity S / Mephenytoin 4'-Hydroxylase Activity R: triplicate, means ± SE, blank not subtracted
Protocol: Recombinant yeast microsomes were prepared from a 10-12 l culture, and recombinant P450s were purified by aminooctylsepharose chromatography as described by Iwasaki et al., J. Biol. Chem. 226:3380-3382 (1991). The Emulgen was then removed from protein by adsorption of the protein to a 4 g hydroxylapatite column (Hypatite C, Clarkson Chemical Company, Williamsport, Pa.) equilibrated with 10 mM potassium phosphate buffer (pH 7.2), 20% glycerol, 0.1 mM EDTA, and 0.1 mM DTT and washing the column with the same buffer until the absorbance at 280 nm returned to zero. The P450 was then eluted with […], and dialyzed overnight against 100 mM potassium phosphate buffer (pH 7.4, 20% glycerol and 0.1 mM EDTA. Absolute and CO difference spectra of purified P450s were determined in the same buffer but containing 0.2% Emulgen and 0.5% cholate.
Mephenytoin 4'-hydroxylase activity was measured by a modification of the radiometric HPLC assay described by Shimada et al., J. Biol. Chem. 261:909-921 (1986), as described below. Purified or recombinant yeast microsomes (10-50 pmol) were preincubated with dilauroylphosphatidylcholine (15 μg per 50 pmol P450), P450 reductase (500 U per […] P450), and human cytochrome b5 (2:1 molar ratio when added). The reconstituted mixture was preincubated for 5 min at 37° C., and then placed on ice. A final concentration of 0.4 mM radiolabelled S- or R-mephenytoin (20.7 mCi/mM and 20.9 mCi/mMol) was added to 50 mM HEPES buffer (pH 7.4) containing 0.1 mM EDTA and 1.5 mM MgCl2 for recombinant 2C proteins. The mixture was then incubated at 37° with shaking for 3 min, and the reaction started with the addition of 2mM NADPH and terminated after 30 min with an equal volume of methanol. Cytochrome b5 was not included in all CYP2C18 reactions, since it had no effect or produced a slight inhibition on the activity of this CYP protein. Reaction volumes were generally 0.25 ml except when the volume of recombinant purified cytochrome or yeast microsomes was greater than 50 μl. In these cases, the volume was increased to 0.5 ml to limit the volume of glycerol from the purified preparation to <4% of the final volume.
At the end of the incubation period, the reactions were terminated with an equal volume of methanol. The incubation mixture was centrifuged at 10,000 g for 10 min and an aliquot assayed directly using HPLC without extraction. Samples with particularly low activity were concentrated by lyophilization and redissolved in a small volume of methanol:water (1:1) before assay. The HPLC system consisted of a reverse phase C18 (10 μm) Versapak, 300 mm×4.1 mm column (Altech Associates, Deerfield, Ill.) using an isocratic solvent consisting of methanol:water (45:55) with a flow rate was kept of 1 ml/min for 25 min. Detection of radioactive peaks was accomplished using an on-line Flow-One radiochemical detector (Radiomatic Instruments Co., Tampa, Fla. Detection of the unlabeled 4'-hydroxymephenytoin authentic standard was performed using an on-line multiwavelength UV detector at both 211 and 230 nm.
Recombinant P450s were purified from yeast microsomes and assays performe

[5] = Tolbutamide hydroxylase assay, recombinant human CYP2C yeast microsomes (Table V); type: biochemical; conditions: for Tolbutamide Hydroxylase Activity (nmol/min/mg protein) / Tolbutamide Hydroxylase Activity (nmol/min/nmol P450): 1 mg yeast microsomal protein + purified P450 reductase (1,000 units); for Tolbutamide Hydroxylase Activity (nmol/min/mg protein): means ±SE
Protocol: Tolbutamide hydroxylase activity was measured according to Knodell et al., J. Pharmacol. Exper. […] Yeast microsomes (1 mg protein) were preincubated with 300 pmol hamster P450 reductase in 0.2 ml of the incubation buffer (below) for 3 min at 37° C. The reaction was then placed on ice and incubated in 0.2 ml of 50 mM HEPES buffer (pH 7.4) containing 1.5 mM MgCl2, 0.1 mM EDTA in a final volume of 1 ml and 1 mM sodium tolbutamide. The reaction was initiated with 0.5 mM NADPH. Human liver microsomes (0.22 mg protein) were incubated without reductase. Incubations with reconstituted recombinant P450s contained 50 pmol purified P450 enzyme, 150 pmol P450 reductase, and 15 μg dilauroylphosphatidyl-choline, and were performed in 100 mM potassium phosphate buffer (pH 7.4). Reactions were terminated after 60 min at 37° C. by the addition of 50 μl of 4N HCl, followed by extraction with 3 ml of water-saturated ethyl acetate. The ethyl acetate extracts were dried under nitrogen at 40° C., the residue resolubilized in 200 μl methanol, and 4-hydroxytolbutamide then assayed using HPLC by injecting 50 μl of the solubilized extract onto a μBONDAPAK C18 column (4.6×300 mm) using 0.05% phosphoric acid, pH 2.6: acetonitrile (6:4, v/v) as the mobile phase with a flow rate of 1 ml/min. The column eluate was monitored at 230 nm and rates of product formation were determined from standard curves prepared by adding varying amounts of 4-hydroxytolbutamide to incubations conducted without NADPH. […] Samples were analyzed in triplicate.

[6] = Mephenytoin 4'-hydroxylase assay, recombinant human CYP2C yeast microsomes (Table III); type: biochemical; conditions: for Mephenytoin 4'-Hydroxylase Activity S: recombinant yeast microsomes + P450 reductase, phospholipid, cytochrome b5 2:1, 0.4 mM substrate, HEPES pH 7.4, 37° C. 30 min, means ± SE; for R/S Ratio: with cytochrome b5
Protocol: as §1

[7] = Tolbutamide hydroxylase assay, purified recombinant P450 2C (Table IV); type: biochemical; conditions: purified P450, reconstituted; blank (22 ± 5) subtracted; means ± SE
Protocol: Tolbutamide hydroxylase activity was measured according to Knodell et al., J. Pharmacol. Exper. Ther. 241:1112-1119 (1987), with several modifications. Yeast microsomes (1 mg protein) were preincubated with 300 pmol hamster P450 reductase in 0.2 ml of the incubation buffer (below) for 3 min at 37° C. The reaction was then placed on ice and incubated in 0.2 ml of 50 mM HEPES buffer (pH 7.4) containing 1.5 mM MgCl2, 0.1 mM EDTA in a final volume of 1 ml and 1 mM sodium tolbutamide. The reaction was initiated with 0.5 mM NADPH. Human liver microsomes (0.22 mg protein) were incubated without reductase. Incubations with reconstituted recombinant P450s contained 50 pmol purified P450 enzyme, 150 pmol P450 reductase, and 15 μg dilauroylphosphatidyl-choline, and were performed in 100 mM potassium phosphate buffer (pH 7.4). Reactions were terminated after 60 min at 37° C. by the addition of 50 μl of 4N HCl, followed by extraction with 3 ml of water-saturated ethyl acetate. […] The column eluate was monitored at 230 nm and rates of product formation were determined from standard curves prepared by adding varying amounts of 4-hydroxytolbutamide to incubations conducted without NADPH. […] Samples were analyzed in triplicate.

| metabolism of tolbutamide [1] | metabolism of tolbutamide [2] | Molecule | Mephenytoin 4'-Hydroxylase Activity R [3] | R/S Ratio [4] | Mephenytoin 4'-Hydroxylase Activity S [4] | S-mephenytoin 4'-hydroxylation turnover number higher than that of recombinant 2C9, 2C18 or 2C8 ([4]; purified, reconstituted system) | stereospecificity of 4'-hydroxylation of mephenytoin ([4]; purified, reconstituted system (Table IV)) | Mephenytoin 4'-Hydroxylase Activity R [4] | S-mephenytoin 4'-hydroxylase turnover number higher than reported for P450MP purified from human liver ([4]; versus Srivastava et al. (1991)) | S-mephenytoin 4'-hydroxylation turnover number higher than that of human liver microsomes ([4]; versus human liver microsomes) | Tolbutamide Hydroxylase Activity (nmol/min/mg protein) [5] | tolbutamide hydroxylase activity compared with 2C9 ([5]; recombinant yeast microsomes, in words) | rate of S-hydroxylation higher than that of R-hydroxylation ([6]; recombinant yeast microsomes) | stereospecificity of 4'-hydroxylation of mephenytoin ([6]; recombinant yeast microsomes (Table III)) | Mephenytoin 4'-Hydroxylase Activity S [6] | Mephenytoin 4'-Hydroxylase Activity S ([6]; listed as 2C19) | R/S Ratio ([6]; recombinant yeast microsomes) | Tolbutamide Hydroxylase Activity [7] | Tolbutamide Hydroxylase Activity (nmol/min/nmol P450) ([5]; adjusted for P450 content) | turnover number for tolbutamide higher than the Leu^359 allele ([5]; recombinant microsomes, adjusted for P450 content) |
| --- | --- | --- | --- | --- | --- | --- | --- | --- | --- | --- | --- | --- | --- | --- | --- | --- | --- | --- | --- | --- |
| > 10 fold | > 10 fold | exogenous P450 reductase (enzyme) | – | – | – | – | – | – | – | – | – | – | – | – | – | – | – | – | – | – |
| – | – | 2C19 (11a): recombinant human cytochrome P450 2C19, clone 11a, amino acid sequence SEQ. ID. No. 1, expressed in yeast (protein) MDPFVVLVLCLSCLLLLSIWRQSSGRGKLPPGPTPLPVIGNILQIDIKDVSKSLTNLSKIYGPVFTLYFGLERMVVLHGYEVVKEALIDLGEEFSGRGHFPLAERANRGFGIVFSNGKRWKEIRRFSLMTLRNFGMGKRSIEDRVQEEARCLVEELRKTKASPCDPTFILGCAPCNVICSIIFQKRFDYKDQQFLNLMEKLNENIRIVSTPWIQICNNFPTIIDYFPGTHNKLLKNLAFMESDILEKVKEHQESMDINNPRDFIDCFLIKMEKEKQNQQSEFTIENLVITAADLLGAGTETTSTTLRYALLLLLKHPEVTAKVQEEIERVIGRNRSPCMQDRGHMPYTDAVVHEVQRYIDLIPTSLPHAVTCDVKFRNYLIPKGTTILTSLTSVLHDNKEFPNPEMFDPRHFLDEGGNFKKSNYFMPFSAGKRICVGEGLARMELFLFLTFILQNFNLKSLIDPKDLDTTPVVNGFASVPPFYQLCFIPV | 0.014 ± 0.02 nmol/min/nmol P450 | 0.03 | 6.17 ± 0.24 nmol/min/nmol P450 | 50-100 times | stereospecific for the S-enantiomer | 0.19 ± 0.04 nmol/min/nmol P450 | ~ 30 times | at least 10 times | 18.4 ± 2.4 nmol/min/mg protein | comparable to that of 2C9 | at least 30 fold | stereospecific | 4.6 ± 0.3 nmol/min/nmol P450 | ~ 5 nmol/min/nmol P450 | 0.03 | – | – | – |
| – | – | 2C9-Ile^359 (65): recombinant human P450 2C9 allelic variant, clone 65, expressed in yeast (protein, UniProt P11712 1-490, looked up) Cytochrome P450 2C9: MDSLVVLVLCLSCLLLLSLWRQSSGRGKLPPGPTPLPVIGNILQIGIKDISKSLTNLSKVYGPVFTLYFGLKPIVVLHGYEAVKEALIDLGEEFSGRGIFPLAERANRGFGIVFSNGKKWKEIRRFSLMTLRNFGMGKRSIEDRVQEEARCLVEELRKTKASPCDPTFILGCAPCNVICSIIFHKRFDYKDQQFLNLMEKLNENIKILSSPWIQICNNFSPIIDYFPGTHNKLLKNVAFMKSYILEKVKEHQESMDMNNPQDFIDCFLMKMEKEKHNQPSEFTIESLENTAVDLFGAGTETTSTTLRYALLLLLKHPEVTAKVQEEIERVIGRNRSPCMQDRSHMPYTDAVVHEVQRYIDLLPTSLPHAVTCDIKFRNYLIPKGTTILISLTSVLHDNKEFPNPEMFDPHHFLDEGGNFKKSKYFMPFSAGKRICVGEALAGMELFLFLTSILQNFNLKSLVDPKNLDTTPVVNGFASVPPFYQLCFIPV | 0.041 ± 0.005 nmol/min/nmol P450 | 0.77 | 0.081 ± 0.006 nmol/min/nmol P450 | – | – | 0.063 ± 0.003 nmol/min/nmol P450 | – | – | – | – | – | – | 0.043 ± 0.000 nmol/min/nmol P450 | – | 0.9 | 122 + 29 pmol/min/nmol P450 | 3.4 ± 0.15 nmol/min/nmol P450 | 3 fold |
| – | – | 2C8: recombinant human cytochrome P450 2C8 (clones 7b and 7c) expressed in yeast (protein) MEPFVVLVLCLSFMLLFSLWRQSCRRRKLPPGPTPLPIIGNMLQIDVKDICKSFTNFSKVYGPVFTVYFGMNPIVVFHGYEAVKEALIDNGEEFSGRGNSPISQRITKGLGIISSNGKRWKEIRRFSLTNLRNFGMGKRSIEDRVQEEAHCLVEELRKTKASPCDPTFILGCAPCNVICSVVFQKRFDYKDQNFLTLMKRFNENFRILNSPWIQVCNNFPLLIDCFPGTHNKVLKNVALTRSYIREKVKEHQASLDVNNPRDFMDCFLIKMEQEKDNQKSEFNIENLVGTVADLFVAGTETTSTTLRYGLLLLLKHPEVTAKVQEEIDHVIGRHRSPCMQDRSHMPYTDAVVHEIQRYSDLVPTGVPHAVTTDTKFRNYLIPKGTTIMALLTSVLHDDKEFPNPNIFDPGHFLDKNGNFKKSDYFMPFSAGKRICAGEGLARMELFLFLTTILQNFNLKSVDDLKNLNTTAVTKGIVSLPPSYQICFIPV | 0.016 ± 0.001 nmol/min/nmol P450 | 0.4 | 0.057 ± 0.009 nmol/min/nmol P450 | – | – | 0.023 ± 0.004 nmol/min/nmol P450 | – | – | 8.5 ± 0.2 nmol/min/mg protein | – | – | – | 0.037 ± 0.001 nmol/min/nmol P450 | – | 0.4 | 12 ± 4 pmol/min/nmol P450 | 0.11 ± 0.003 nmol/min/nmol P450 | – |
